Measured values published in publication doi:10.1101/2022.06.13.495963 (bioRxiv, 2022).

Molecular target: B-Myb negative regulatory domain, amino acids 440-600 (NRD^440-600) (human, UniProt P10244-1 440-600)
Assay: ITC

Sequence of B-Myb negative regulatory domain, amino acids 440-600 (NRD^440-600) (P10244 440-600): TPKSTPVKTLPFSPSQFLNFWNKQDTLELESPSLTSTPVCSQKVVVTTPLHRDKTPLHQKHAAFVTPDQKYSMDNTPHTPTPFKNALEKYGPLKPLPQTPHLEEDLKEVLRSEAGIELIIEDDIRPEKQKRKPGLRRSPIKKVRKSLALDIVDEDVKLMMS

Kd: 4.5 µM
B1: B-Myb DNA binding domain (B-Myb^34-183) (domain or fragment)
chain: not shown
